The text below walks through data of publication PMC8480667 (The Journal of Experimental Medicine, 2021).

The target in experiment [1] is rodent GABAA receptor γ2 subunit alone on COS7 cells (Rattus norvegicus (paper: rodent), UniProt P18508). Description: immunostaining of cells or tissue.
Experiment [2] deals with rodent α1β3γ2 GABAA receptor on COS7 cells (Rattus norvegicus (alpha1, beta3); …, UniProt P62813;P63079;P18508). The experiment in a line: immunostaining of cells or tissue.
Experiment [3] has as its target rodent α2β3γ2 GABAA receptor on COS7 cells (Rattus norvegicus (paper: rodent), UniProt P23576;P63079;P18508). The experiment in a line: immunostaining of cells or tissue.
Experiment [4] addresses rodent α3β3γ2 GABAA receptor on COS7 cells (Rattus norvegicus (α3 rat; β3, γ2 …, UniProt P20236;P63079;P18508). Description: immunostaining of cells or tissue.
For experiment [5], the target named is rodent GABAA receptor β3 subunit alone on COS7 cells (Rattus norvegicus, UniProt P63079). The experiment in a line: immunostaining of cells or tissue.
Sequence of rodent GABAA receptor β3 subunit alone on COS7 cells (P63079 26-473): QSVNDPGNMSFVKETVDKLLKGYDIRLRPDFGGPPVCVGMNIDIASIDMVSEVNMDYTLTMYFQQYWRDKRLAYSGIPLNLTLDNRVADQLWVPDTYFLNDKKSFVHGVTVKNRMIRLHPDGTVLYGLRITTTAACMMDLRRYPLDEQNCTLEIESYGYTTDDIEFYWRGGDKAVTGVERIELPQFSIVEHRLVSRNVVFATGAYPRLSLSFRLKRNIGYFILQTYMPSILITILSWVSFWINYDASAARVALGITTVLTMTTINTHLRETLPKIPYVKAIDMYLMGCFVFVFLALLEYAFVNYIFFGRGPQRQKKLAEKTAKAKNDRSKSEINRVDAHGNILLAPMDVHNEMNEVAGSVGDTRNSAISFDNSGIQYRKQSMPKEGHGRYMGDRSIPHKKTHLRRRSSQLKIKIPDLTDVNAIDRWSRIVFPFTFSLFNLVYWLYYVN
For experiment [6], the target named is rodent α4β3γ2 GABAA receptor on COS7 cells (Rattus norvegicus (α4 rat; β3, γ2 …, UniProt P28471;P63079;P18508). Description: immunostaining of cells or tissue.
In experiment [7] the target is rodent α5β3γ2 GABAA receptor on COS7 cells (Rattus norvegicus (paper: rodent), UniProt P19969;P63079;P18508). Description: immunostaining of cells or tissue.
Sequence of rodent α5β3γ2 GABAA receptor on COS7 cells (P19969 26-464, chain 1 of 3): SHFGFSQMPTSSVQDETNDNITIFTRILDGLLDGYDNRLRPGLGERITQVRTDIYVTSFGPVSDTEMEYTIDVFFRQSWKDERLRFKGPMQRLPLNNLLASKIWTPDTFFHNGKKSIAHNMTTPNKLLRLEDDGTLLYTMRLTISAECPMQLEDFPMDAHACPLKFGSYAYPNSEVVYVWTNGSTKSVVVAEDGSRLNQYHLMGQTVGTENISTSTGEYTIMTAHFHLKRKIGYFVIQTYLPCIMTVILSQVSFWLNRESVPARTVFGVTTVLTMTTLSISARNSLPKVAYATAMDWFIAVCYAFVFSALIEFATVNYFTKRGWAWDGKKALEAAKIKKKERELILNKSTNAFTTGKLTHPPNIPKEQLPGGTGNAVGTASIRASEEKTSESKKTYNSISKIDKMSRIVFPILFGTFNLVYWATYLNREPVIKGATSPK
Sequence of rodent α5β3γ2 GABAA receptor on COS7 cells (P63079 26-473, chain 2 of 3): as the sequence (P63079 26-473) above
Sequence of rodent α5β3γ2 GABAA receptor on COS7 cells (P18508 39-466, chain 3 of 3): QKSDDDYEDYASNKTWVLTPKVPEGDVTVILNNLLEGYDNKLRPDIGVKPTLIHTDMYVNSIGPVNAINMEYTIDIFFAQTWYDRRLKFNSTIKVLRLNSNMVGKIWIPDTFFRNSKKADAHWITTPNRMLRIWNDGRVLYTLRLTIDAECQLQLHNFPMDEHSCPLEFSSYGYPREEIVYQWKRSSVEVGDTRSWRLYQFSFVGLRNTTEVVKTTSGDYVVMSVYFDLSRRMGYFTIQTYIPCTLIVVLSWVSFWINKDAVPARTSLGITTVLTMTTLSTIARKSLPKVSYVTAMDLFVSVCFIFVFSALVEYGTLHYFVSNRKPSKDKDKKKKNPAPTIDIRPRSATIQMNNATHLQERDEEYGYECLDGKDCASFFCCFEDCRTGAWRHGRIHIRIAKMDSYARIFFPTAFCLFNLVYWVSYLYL
Experiment [8] concerns the target rodent α1β3 GABAA receptor on COS7 cells (Rattus norvegicus, UniProt P62813;P63079). The experiment in a line: immunostaining of cells or tissue.
In experiment [9] the target is rat α1β3 GABAA receptor on HEK293T cells (Rattus norvegicus, UniProt P62813;P63079). The experiment in a line: immunostaining of cells or tissue.
The target in experiment [10] is rat α1β3γ2 GABAA receptor on HEK293T cells (Rattus norvegicus, UniProt P62813;P63079;P18508). Description: flow cytometry on cells. In general terms: Flow cytometry measures light scatter and fluorescence of single cells or particles in a stream.
For experiment [11], the target named is human α1β3γ2 GABAA receptor on HEK293T cells (Homo sapiens, UniProt P14867;P28472;P18507). Description: flow cytometry on cells.

Sequence of rodent α2β3γ2 GABAA receptor on COS7 cells (P23576 29-451, chain 1 of 3): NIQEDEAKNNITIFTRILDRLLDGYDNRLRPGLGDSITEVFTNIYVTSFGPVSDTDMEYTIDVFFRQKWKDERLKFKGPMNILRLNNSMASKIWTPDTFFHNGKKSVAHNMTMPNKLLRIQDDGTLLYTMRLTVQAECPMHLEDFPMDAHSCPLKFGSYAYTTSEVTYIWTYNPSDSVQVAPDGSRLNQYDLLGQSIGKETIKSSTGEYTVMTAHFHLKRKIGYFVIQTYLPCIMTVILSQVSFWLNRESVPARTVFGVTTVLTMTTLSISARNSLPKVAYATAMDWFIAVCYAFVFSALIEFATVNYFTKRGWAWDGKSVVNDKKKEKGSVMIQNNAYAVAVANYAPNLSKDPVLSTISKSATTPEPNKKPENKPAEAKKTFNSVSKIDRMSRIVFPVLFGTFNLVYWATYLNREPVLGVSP
Sequence of rodent α2β3γ2 GABAA receptor on COS7 cells (P63079 26-473, chain 2 of 3): as the sequence (P63079 26-473) above
Sequence of rodent α2β3γ2 GABAA receptor on COS7 cells (P18508 39-466, chain 3 of 3): as the sequence (P18508 39-466, chain 3 of 3) above
Sequence of rodent α3β3γ2 GABAA receptor on COS7 cells (Rattus norvegicus (P20236 29-493, chain 1 of 3): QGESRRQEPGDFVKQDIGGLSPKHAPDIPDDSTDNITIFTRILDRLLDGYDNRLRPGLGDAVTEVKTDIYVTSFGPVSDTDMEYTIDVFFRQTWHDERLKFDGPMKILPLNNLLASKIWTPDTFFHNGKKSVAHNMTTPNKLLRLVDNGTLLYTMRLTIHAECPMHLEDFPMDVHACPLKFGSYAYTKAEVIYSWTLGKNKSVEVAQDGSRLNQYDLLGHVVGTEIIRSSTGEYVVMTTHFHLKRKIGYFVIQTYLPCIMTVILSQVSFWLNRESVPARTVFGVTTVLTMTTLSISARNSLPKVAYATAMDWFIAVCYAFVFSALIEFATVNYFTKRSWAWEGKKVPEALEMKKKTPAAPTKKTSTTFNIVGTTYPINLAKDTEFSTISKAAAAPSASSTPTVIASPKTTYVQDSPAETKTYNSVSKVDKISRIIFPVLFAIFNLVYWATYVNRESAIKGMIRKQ
Sequence of rodent α3β3γ2 GABAA receptor on COS7 cells (Rattus norvegicus (P63079 26-473, chain 2 of 3): as the sequence (P63079 26-473) above
Sequence of rodent α3β3γ2 GABAA receptor on COS7 cells (Rattus norvegicus (P18508 39-466, chain 3 of 3): as the sequence (P18508 39-466, chain 3 of 3) above
Sequence of rodent GABAA receptor γ2 subunit alone on COS7 cells (P18508 39-466): as the sequence (P18508 39-466, chain 3 of 3) above

B1: human monoclonal GABAAR antibody #113-175 (antibody, V domains shown)
VH: EVQLLESGEGLVQPGGSLRLSCAASGFTFKTYAMSWVRQAPGKGLEWVSAISGSGASTYYADFVEGRFTISRDNSKNTLYLQMNSLRAEDTAVYYCAKEPPAMVWFGGGYFDYWGQGTLVTVSS
VL: EIVLTQSPATLSLSPGERATLSCRASQSVSSYLAWYQQKPGQAPRLLIYDASNRATGIPARFSGSGSGTDFTLTISSLEPEDFAVYYCQQRSNWPPYSFGQGTKLEIK
As to B1, the binding result is on record as “no binding (tested: 5 µg/ml)” in experiment [1]; “binds” in [2]; “no binding (tested: 5 µg/ml)” in experiment [3]; “no binding (tested: 5 µg/ml)” in experiment [4]; “no binding (tested: 5 µg/ml)” in experiment [5]; “no binding (tested: 5 µg/ml)” in experiment [6]. Moreover, the binding result is on record as “no binding (tested: 5 µg/ml)” in [7]; “no binding (tested: 5 µg/ml)” in experiment [8]; “no binding” in experiment [9]; “binds” in experiment [10]; “binds” in experiment [11].

B2: human monoclonal GABAAR antibody #113-115 (antibody, V domains shown)
VH: QVQLVQSGAEVKKPGASVKVSCKASGYTFISYDINWVRQATGQGLEWMGGMDPKSGNTGYAQKFQGRVTMTTNTAISTAYMELSSLRSEDTAVYYCVRGEQSYDRTGYSDWFDPWGQGTLVTVSS
VL: not shown
With B2, the binding result in experiment [1] was “no binding (tested: 5 µg/ml)”; in [2], “binds”; in [3], “no binding (tested: 5 µg/ml)”; in experiment [4], “no binding (tested: 5 µg/ml)”; in experiment [5], “no binding (tested: 5 µg/ml)”; in experiment [6], “no binding (tested: 5 µg/ml)”. The binding result in experiment [7] is given as “no binding (tested: 5 µg/ml)”; in [8], “binds”; in experiment [9], “binds”; in [10] it was “binds”; in [11] it was “binds”.
